In publication PMC7062719, “Full-length human GLP-1 receptor structure without orthosteric ligands” (Nature Communications, 2020):

Molecular target: T1, Human GLP-1R (Arg24-Leu422) fragment (human, UniProt P43220)
T1 construct: GLP-1 receptor, human, residues Arg24-Leu422; N-terminal HA-FLAG-B2-HRV14-3C tags and C-terminal HPC4-HRV14-3C-10x His tags; no 3C cleavage is described; also called detergent solubilized GLP-1R; source: Sf9 insect cells, baculovirus, co-expressed with DNGαs and Gβ1γ2; solubilised in LMNG/CHS, purified as a complex (HPC4 resin, SEC); not shown: HPC4, C-terminal, kept
T1 sequence (P43220 24-422): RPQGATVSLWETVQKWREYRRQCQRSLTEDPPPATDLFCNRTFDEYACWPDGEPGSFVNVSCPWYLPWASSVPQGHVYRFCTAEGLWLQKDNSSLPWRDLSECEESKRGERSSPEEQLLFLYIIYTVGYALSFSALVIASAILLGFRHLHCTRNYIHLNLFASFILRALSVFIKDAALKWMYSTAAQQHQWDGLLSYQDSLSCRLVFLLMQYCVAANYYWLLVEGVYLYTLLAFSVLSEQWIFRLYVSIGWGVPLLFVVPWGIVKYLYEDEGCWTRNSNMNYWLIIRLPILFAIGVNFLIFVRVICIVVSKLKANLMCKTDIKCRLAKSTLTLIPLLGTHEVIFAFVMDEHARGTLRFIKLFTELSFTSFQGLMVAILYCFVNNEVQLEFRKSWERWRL
Test: SEC + other: negative stain EM; Fab7F38 added at an estimated 1:1 ratio to the HPC4-purified GLP-1R–semaglutide–Gs–Nb35 complex, SEC on Superose 6 Increase (20 mM HEPES pH 7.5, 100 mM NaCl, 2 mM MgCl2, 1 μM semaglutide, LMNG/CHS), peak fraction used for single-particle 2D class averages
Conditions: both partners purified

binding result: binds
B1: Fab7F38 (Fab, V domains shown)
VH: EVQLQQSGPELVKPGASVKMSCKAPGYTFTSYVTHWVKQKPGQGLEWIGYINPYNDSPKYNEKYKAKATLTSDKSSSTVYMELSSLTSEDSAVYYCARIGYFRYDEGGNYALDYWGQGTSVTVSS
VL: QIVLTQSPAIMSASPGEKVTISCSASSSVSYMYWYQQKPGSSPKPWIYRTSKLASGVPVRFSGSGSGTSYSLTISNMEAEDAATYYCQQFHTYPWTFGGGTKLEIK
notes: source: ExpiCHO-S cells, transient transfection, purified (Protein G Sepharose, SEC Superdex 75)
